Source: paper PMC9644274

T1: GFP-RTN3 (Arabidopsis thaliana), Q9SH59
T1 chain: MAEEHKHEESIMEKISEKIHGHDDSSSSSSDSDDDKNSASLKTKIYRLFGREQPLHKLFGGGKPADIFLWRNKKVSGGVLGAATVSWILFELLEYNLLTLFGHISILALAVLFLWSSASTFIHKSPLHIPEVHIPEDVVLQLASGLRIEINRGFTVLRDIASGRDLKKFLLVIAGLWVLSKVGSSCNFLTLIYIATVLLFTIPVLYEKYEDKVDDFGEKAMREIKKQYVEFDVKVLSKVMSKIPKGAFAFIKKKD


Columns and labels:
Test in all cases: FRET or BRET; FRET-FLIM in tobacco leaf epidermal cells, transient expression; GFP fusion as donor, mRFP fusion as acceptor; a reduction of the donor's lifetime of 0.2 ns or more is taken as energy transfer
[1] = target: GFP-PMTV-TGB2 (potato mop-top virus)
[2] = target: GFP-PVX-TGB2 (potato virus X)
[3] = target: CMV-3a-GFP (cauliflower mosaic virus in p-0009; cucumber mosaic virus in p-0012)
[4] = target: TMV-30k-GFP (tobacco mosaic virus)
[5] = target: T1, GFP-RTN3 (Arabidopsis thaliana), Q9SH59; settings: remark: other sources report otherwise

Binder | average GFP fluorescence lifetime of the donor with the acceptor [1] | reduction of the GFP lifetime against the donor alone (Δ) [1] | average GFP fluorescence lifetime of the donor with the acceptor [2] | reduction of the GFP lifetime against the donor alone (Δ) [2] | average GFP fluorescence lifetime of the donor with the acceptor [3] | reduction of the GFP lifetime against the donor alone (Δ) [3] | average GFP fluorescence lifetime of the donor with the acceptor [4] | reduction of the GFP lifetime against the donor alone (Δ) [4] | average GFP fluorescence lifetime of the donor with the acceptor [5] | reduction of the GFP lifetime against the donor alone (Δ) [5]
mRFP-RTN6 (natural protein) MAEELEKSMHKEESLMEKIADKIHDHDSSSSSDSEHEKPESPSALKAKIYRLFGREKPVHKVLGGGLPADVFLWRDKKLSASVLGVATAIWVLFELVEYHFLSLVCHILIFALAALFLLSNAHAFMNKTPPKIPEIHIKEEHFLMIVSALRNELNQAFVILRSIALGRDLKKFLMVVFGLWIISVVGNWFNFLTLVYICFVVLHTVPMLYEKHEDKVDPVAEKTLKELKKHYMVFDEKVLSKLPVASLKAKLG | 2.19 ns | 0.22 ns | 2.08 ns | 0.31 ns | 2.04 ns | 0.33 ns | 2.08 ns | 0.32 ns | – | –
mRFP-RTN6, Q6DBN4 1-253 (natural protein) MAEELEKSMHKEESLMEKIADKIHDHDSSSSSDSEHEKPESPSALKAKIYRLFGREKPVHKVLGGGLPADVFLWRDKKLSASVLGVATAIWVLFELVEYHFLSLVCHILIFALAALFLLSNAHAFMNKTPPKIPEIHIKEEHFLMIVSALRNELNQAFVILRSIALGRDLKKFLMVVFGLWIISVVGNWFNFLTLVYICFVVLHTVPMLYEKHEDKVDPVAEKTLKELKKHYMVFDEKVLSKLPVASLKAKLG | – | – | – | – | – | – | – | – | 2.2 ns | 0.22 ns
mRFP-RTN3 (natural protein) MAEEHKHEESIMEKISEKIHGHDDSSSSSSDSDDDKNSASLKTKIYRLFGREQPLHKLFGGGKPADIFLWRNKKVSGGVLGAATVSWILFELLEYNLLTLFGHISILALAVLFLWSSASTFIHKSPLHIPEVHIPEDVVLQLASGLRIEINRGFTVLRDIASGRDLKKFLLVIAGLWVLSKVGSSCNFLTLIYIATVLLFTIPVLYEKYEDKVDDFGEKAMREIKKQYVEFDVKVLSKVMSKIPKGAFAFIKKKD | 2.12 ns | 0.29 ns | 2.07 ns | 0.32 ns | 2.05 ns | 0.32 ns | 2.09 ns | 0.31 ns | – | –
